Measured values: patent US6783760

Target: anti-VCAM-1.tTF coaguligand (anti-VCAM-1 antibody IgG covalently linked via SMPT to truncated tissue factor with an added N-terminal cysteine) (human) (UniProt P13726)
Experiment: 125I-labeled 10H10 bound to anti-VCAM-1.tTF-treated IL-1α-activated bEnd.3 cells, gamma counting

UniProt P13726, sequence (P13726 other isoform, or with tags, fused parts or gaps): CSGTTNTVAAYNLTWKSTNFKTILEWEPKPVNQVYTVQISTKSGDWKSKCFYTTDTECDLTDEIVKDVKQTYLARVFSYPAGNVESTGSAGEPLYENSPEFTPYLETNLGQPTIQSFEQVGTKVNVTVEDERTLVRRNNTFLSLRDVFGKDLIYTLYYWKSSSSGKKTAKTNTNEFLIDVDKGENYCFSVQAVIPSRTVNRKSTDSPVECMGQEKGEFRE

10H10, mouse monoclonal antibody against human tissue factor
anti-TF antibody bound to coaguligand-treated cells at saturation: 8.7 fmol
molecules of anti-TF antibody bound per cell at saturation (molecules of anti-TF antibody per cell): 540000
